# Source: patent publication US20150152159A1
# Molecular target: human growth hormone receptor on IM-9 cells (human) (UniProt P10912)
# Experiment: not given
# Sequence of UniProt P10912 (P10912 19-638): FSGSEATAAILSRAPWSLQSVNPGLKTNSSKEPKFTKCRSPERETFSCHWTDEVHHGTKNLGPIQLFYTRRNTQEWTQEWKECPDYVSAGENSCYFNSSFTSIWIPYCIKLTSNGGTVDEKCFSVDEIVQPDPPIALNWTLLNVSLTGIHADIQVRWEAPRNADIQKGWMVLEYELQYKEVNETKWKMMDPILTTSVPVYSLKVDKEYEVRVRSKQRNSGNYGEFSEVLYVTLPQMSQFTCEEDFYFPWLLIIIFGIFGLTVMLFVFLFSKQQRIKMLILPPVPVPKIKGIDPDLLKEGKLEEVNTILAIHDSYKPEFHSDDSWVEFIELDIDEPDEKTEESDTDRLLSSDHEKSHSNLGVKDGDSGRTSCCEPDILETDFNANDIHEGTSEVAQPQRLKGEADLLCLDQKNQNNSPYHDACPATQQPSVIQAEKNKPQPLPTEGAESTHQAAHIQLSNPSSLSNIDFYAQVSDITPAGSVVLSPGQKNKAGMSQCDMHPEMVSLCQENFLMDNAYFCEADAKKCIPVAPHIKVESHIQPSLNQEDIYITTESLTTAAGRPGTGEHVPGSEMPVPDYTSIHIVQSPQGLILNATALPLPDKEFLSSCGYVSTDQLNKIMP
row,"EC50, STAT5 phosphorylation in IM-9 cells (MFI of PE, intracellular phospho-STAT5 staining)",Substance
1,4.1 nM,(His)F92-pAF-30K (ligand)
2,1.5 nM,(His)F92pAF-5K (from UniProt P09466) (ligand)
3,4.6 nM,(His)F92pAF-20K (from UniProt P09466) (ligand)
4,0.9 nM,hGH F92pAF (from UniProt P01241 27-217) (ligand)

# Molecular target: human growth hormone receptor on IM-9 cells (human) (UniProt P10912)
# Experiment: not given
# Remark: another data set of the same source
row,"EC50, STAT5 phosphorylation in IM-9 cells (MFI of PE, intracellular phospho-STAT5 staining)",Substance
1,1.1 nM,hGH F92pAF (from UniProt P01241 27-217) (ligand)

# Molecular target: human growth hormone receptor on IM-9 cells (human) (UniProt P10912)
# Experiment: cell-based or functional assay
row,"EC50 (nM), STAT5 phosphorylation in IM-9 cells",Substance
1,0.8 nM,His-tagged hGH Y143pAF (from UniProt P01241 27-217) (ligand)
2,1.3 nM,hGH A155pAF (from UniProt P01241 27-217) (ligand)
3,0.9 nM,hGH E88pAF (from UniProt P01241 27-217) (ligand)
4,0.8 nM,hGH F92pAF (from UniProt P01241 27-217) (ligand)
5,3.3 nM,hGH F139pAF (from UniProt P01241 27-217) (ligand)
6,0.8 nM,hGH G131pAF (from UniProt P01241 27-217) (ligand)
7,1.4 nM,hGH G136pAF (from UniProt P01241 27-217) (ligand)
8,2.7 nM,hGH K140pAF (from UniProt P01241 27-217) (ligand)
9,8.5 nM,hGH N99pAF (from UniProt P01241 27-217) (ligand)
10,1 nM,hGH P133pAF (from UniProt P01241 27-217) (ligand)
11,2 nM,hGH Q91pAF (from UniProt P01241 27-217) (ligand)
12,0.9 nM,hGH R134pAF (from UniProt P01241 27-217) (ligand)
13,16.7 nM,hGH S95pAF (from UniProt P01241 27-217) (ligand)
14,0.9 nM,hGH T135pAF (from UniProt P01241 27-217) (ligand)
15,130000 nM,hGH Y103pAF (from UniProt P01241 27-217) (ligand)
16,1 nM,hGH Y111pAF (from UniProt P01241 27-217) (ligand)
17,> 200000 nM,rat GH WT (from UniProt P01244 27-216) (ligand)
